The target in test [1] is HIV-1 Env of strain WITO.33 (Env-pseudotyped virus) (HIV-1). The test can be described thus: cell-based or functional assay.
Test [2] addresses CAP256 wk34c80 (HIV-1). The test can be described thus: cell-based or functional assay.

The values that follow come from patent publication US20250197482A1 (UNITED STATES OF AMERICA AS REPRESENTED BY THE SECRETARY …, published 2025).

Numbering of substitutions follows the chain as printed.

B1: CAP256V2LS-10E8-5 (bispecific antibody)
heavy chain: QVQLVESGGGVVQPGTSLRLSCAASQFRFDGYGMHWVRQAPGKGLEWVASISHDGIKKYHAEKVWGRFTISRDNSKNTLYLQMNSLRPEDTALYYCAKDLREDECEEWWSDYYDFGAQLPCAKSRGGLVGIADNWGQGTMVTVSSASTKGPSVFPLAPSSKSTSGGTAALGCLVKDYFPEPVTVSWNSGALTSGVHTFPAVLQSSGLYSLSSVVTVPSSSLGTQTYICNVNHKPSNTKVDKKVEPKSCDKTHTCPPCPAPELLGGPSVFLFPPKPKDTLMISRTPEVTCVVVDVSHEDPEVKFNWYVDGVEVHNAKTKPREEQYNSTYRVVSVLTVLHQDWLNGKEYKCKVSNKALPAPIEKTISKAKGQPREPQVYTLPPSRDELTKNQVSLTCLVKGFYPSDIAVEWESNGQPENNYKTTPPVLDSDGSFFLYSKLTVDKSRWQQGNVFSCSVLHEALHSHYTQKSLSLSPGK
light chain (10E8v4 scFv, linker, CAP256V2LS LC): EVRLVESGGGLVKPGGSLRLSCSASGFDFDNAWMTWVRQPPGKGLEWVGRITGPGEGWSVDYAESVKGRFTISRDNTKNTLYLEMNNVRTEDTGYYFCARTGKYYDFWSGYPPGEEYFQDWGQGTLVIVSSGGGGSGGGGSGGGGSSELTQDPAVSVALKQTVTITCRGDSLRSHYASWYQKKPGQAPVLLFYGKNNRPSGIPDRFSGSASGNRASLTITGAQAEDEADYYCSSRDKSGSRLSVFGGGTKLTVDKTHTGDKTHTQSVLTQPPSVSAAPGQKVTISCSGNTSNIGNNFVSWYQQRPGRAPQLLIYETDKRPSGIPDRFSASKSGTSGTLAITGLQTGDEADYYCATWAASLSSARVFGTGTQVIVLGQPKVNPTVTLFPPSSEELQANKATLVCLISDFYPGAVTVAWKADSSPVKAGVETTTPSKQSNNKYAASSYLSLTPEQWKSHRSYSCQVTHEGSTVEKTVAPTECS
On to B1, for which the entries for the “% neutralization, single point, Env-pseudotyped virus on TZM-bl” value (“% neutralization, single point” for short) in test [1] and in test [2] were 18% and 100%, respectively.

B2: CAP256V2LS-J3-1 (bispecific antibody)
heavy chain: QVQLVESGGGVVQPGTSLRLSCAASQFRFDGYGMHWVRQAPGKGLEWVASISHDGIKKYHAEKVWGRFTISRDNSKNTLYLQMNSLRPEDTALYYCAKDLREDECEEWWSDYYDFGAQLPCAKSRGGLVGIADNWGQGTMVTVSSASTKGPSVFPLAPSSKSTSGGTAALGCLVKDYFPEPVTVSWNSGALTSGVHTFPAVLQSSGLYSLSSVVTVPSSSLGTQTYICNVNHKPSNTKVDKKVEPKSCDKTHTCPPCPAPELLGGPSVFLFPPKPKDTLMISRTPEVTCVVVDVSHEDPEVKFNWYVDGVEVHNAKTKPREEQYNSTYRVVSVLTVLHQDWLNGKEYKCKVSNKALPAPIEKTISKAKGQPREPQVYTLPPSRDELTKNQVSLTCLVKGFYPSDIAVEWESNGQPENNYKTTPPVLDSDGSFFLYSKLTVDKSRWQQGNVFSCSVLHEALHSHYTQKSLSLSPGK
light chain (J3 VHH, linker, CAP256V2LS LC): EVQLVESGGGLVQAGGFLRLSCELRGSIFNQYAMAWFRQAPGKEREFVAGMGAVPHYGEFVKGRFTISRDNAKSTVYLQMSSLKPEDTAIYFCARSKSTYISYNSNGYDYWGRGTQVTVSSGGSGGQSVLTQPPSVSAAPGQKVTISCSGNTSNIGNNFVSWYQQRPGRAPQLLIYETDKRPSGIPDRFSASKSGTSGTLAITGLQTGDEADYYCATWAASLSSARVFGTGTQVIVLGQPKVNPTVTLFPPSSEELQANKATLVCLISDFYPGAVTVAWKADSSPVKAGVETTTPSKQSNNKYAASSYLSLTPEQWKSHRSYSCQVTHEGSTVEKTVAPTECS
Turning to B2, the “% neutralization, single point” value in test [1] came to 3%; in test [2] it was 20%.

B3: CAP256V2LS-10E8-4 (bispecific antibody)
heavy chain: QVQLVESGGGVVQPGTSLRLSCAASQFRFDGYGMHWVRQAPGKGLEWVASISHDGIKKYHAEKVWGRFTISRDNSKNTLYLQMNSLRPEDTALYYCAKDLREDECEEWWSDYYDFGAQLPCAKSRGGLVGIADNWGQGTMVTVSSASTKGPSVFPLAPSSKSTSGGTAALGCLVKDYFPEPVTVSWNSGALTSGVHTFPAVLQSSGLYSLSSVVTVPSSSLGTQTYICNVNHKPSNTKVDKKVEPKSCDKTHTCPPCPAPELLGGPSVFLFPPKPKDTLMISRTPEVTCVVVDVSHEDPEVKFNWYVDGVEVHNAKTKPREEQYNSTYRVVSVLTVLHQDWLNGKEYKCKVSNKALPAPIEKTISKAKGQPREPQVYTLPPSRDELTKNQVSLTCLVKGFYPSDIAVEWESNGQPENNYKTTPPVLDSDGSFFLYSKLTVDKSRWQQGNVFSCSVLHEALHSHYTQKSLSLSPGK
light chain (10E8v4 scFv, linker, CAP256V2LS LC): EVRLVESGGGLVKPGGSLRLSCSASGFDFDNAWMTWVRQPPGKGLEWVGRITGPGEGWSVDYAESVKGRFTISRDNTKNTLYLEMNNVRTEDTGYYFCARTGKYYDFWSGYPPGEEYFQDWGQGTLVIVSSGGGGSGGGGSGGGGSSELTQDPAVSVALKQTVTITCRGDSLRSHYASWYQKKPGQAPVLLFYGKNNRPSGIPDRFSGSASGNRASLTITGAQAEDEADYYCSSRDKSGSRLSVFGGGTKLTVDKTHTQSVLTQPPSVSAAPGQKVTISCSGNTSNIGNNFVSWYQQRPGRAPQLLIYETDKRPSGIPDRFSASKSGTSGTLAITGLQTGDEADYYCATWAASLSSARVFGTGTQVIVLGQPKVNPTVTLFPPSSEELQANKATLVCLISDFYPGAVTVAWKADSSPVKAGVETTTPSKQSNNKYAASSYLSLTPEQWKSHRSYSCQVTHEGSTVEKTVAPTECS
Take B3: the “% neutralization, single point” value in test [1] was 10%; in test [2], 23%.

B4: CAP256V2LS-10E8-6 (bispecific antibody)
heavy chain: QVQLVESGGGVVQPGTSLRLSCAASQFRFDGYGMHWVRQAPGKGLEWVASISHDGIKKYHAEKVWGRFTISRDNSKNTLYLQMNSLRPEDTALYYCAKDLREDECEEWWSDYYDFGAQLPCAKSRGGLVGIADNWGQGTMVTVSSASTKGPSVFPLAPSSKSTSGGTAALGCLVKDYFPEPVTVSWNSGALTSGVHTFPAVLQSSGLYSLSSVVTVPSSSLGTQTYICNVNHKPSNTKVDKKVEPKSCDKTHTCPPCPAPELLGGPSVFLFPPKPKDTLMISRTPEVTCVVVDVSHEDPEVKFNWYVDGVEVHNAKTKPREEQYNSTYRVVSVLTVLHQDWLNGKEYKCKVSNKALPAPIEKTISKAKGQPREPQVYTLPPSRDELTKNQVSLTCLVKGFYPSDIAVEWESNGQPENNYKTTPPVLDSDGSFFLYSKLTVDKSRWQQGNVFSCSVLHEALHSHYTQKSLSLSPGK
light chain (10E8v4 scFv, linker, CAP256V2LS LC): EVRLVESGGGLVKPGGSLRLSCSASGFDFDNAWMTWVRQPPGKGLEWVGRITGPGEGWSVDYAESVKGRFTISRDNTKNTLYLEMNNVRTEDTGYYFCARTGKYYDFWSGYPPGEEYFQDWGQGTLVIVSSGGGGSGGGGSGGGGSSELTQDPAVSVALKQTVTITCRGDSLRSHYASWYQKKPGQAPVLLFYGKNNRPSGIPDRFSGSASGNRASLTITGAQAEDEADYYCSSRDKSGSRLSVFGGGTKLTVDKTHTGDKTHTGDKTHTQSVLTQPPSVSAAPGQKVTISCSGNTSNIGNNFVSWYQQRPGRAPQLLIYETDKRPSGIPDRFSASKSGTSGTLAITGLQTGDEADYYCATWAASLSSARVFGTGTQVIVLGQPKVNPTVTLFPPSSEELQANKATLVCLISDFYPGAVTVAWKADSSPVKAGVETTTPSKQSNNKYAASSYLSLTPEQWKSHRSYSCQVTHEGSTVEKTVAPTECS
Take B4: the “% neutralization, single point” value in test [1] came out at 0%; in test [2], 100%.

B5: CAP256V2LS-VRC01-3 (bispecific antibody)
heavy chain: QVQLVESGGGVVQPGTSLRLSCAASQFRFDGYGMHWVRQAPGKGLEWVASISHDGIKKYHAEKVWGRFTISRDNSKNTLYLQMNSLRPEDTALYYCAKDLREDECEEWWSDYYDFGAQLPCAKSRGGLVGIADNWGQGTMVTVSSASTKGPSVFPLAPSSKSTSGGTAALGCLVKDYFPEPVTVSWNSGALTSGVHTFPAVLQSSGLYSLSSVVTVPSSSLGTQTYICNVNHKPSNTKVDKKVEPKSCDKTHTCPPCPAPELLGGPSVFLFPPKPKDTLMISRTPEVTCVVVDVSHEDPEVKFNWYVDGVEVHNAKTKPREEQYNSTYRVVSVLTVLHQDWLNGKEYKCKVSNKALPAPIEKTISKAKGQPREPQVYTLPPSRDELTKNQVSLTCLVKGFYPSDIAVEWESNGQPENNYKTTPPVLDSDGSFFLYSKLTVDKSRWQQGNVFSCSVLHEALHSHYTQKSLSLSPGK
light chain (VRC01 scFv, linker, CAP256V2LS LC): QVQLVQSGGQMKKPGESMRISCRASGYEFIDCTLNWIRLAPGKRPEWMGWLKPRGGAVNYARPLQGRVTMTRDVYSDTAFLELRSLTVDDTAVYFCTRGKNCDYNWDFEHWGRGTPVIVSSGGGGSGGGGSGGGGSLTQSPGTLSLSPGETAIISCRTSQYGSLAWYQQRPGQAPRLVIYSGSTRAAGIPDRFSGSRWGPDYNLTISNLESGDFGVYYCQQYEFFGQGTKVQVGGSGGGGSGGGGSGGQSVLTQPPSVSAAPGQKVTISCSGNTSNIGNNFVSWYQQRPGRAPQLLIYETDKRPSGIPDRFSASKSGTSGTLAITGLQTGDEADYYCATWAASLSSARVFGTGTQVIVLGQPKVNPTVTLFPPSSEELQANKATLVCLISDFYPGAVTVAWKADSSPVKAGVETTTPSKQSNNKYAASSYLSLTPEQWKSHRSYSCQVTHEGSTVEKTVAPTECS
With B5, the “% neutralization, single point” value was 0% in test [1] and 99% in test [2].

B6: CAP256V2LS-VRC01-2 (bispecific antibody)
heavy chain: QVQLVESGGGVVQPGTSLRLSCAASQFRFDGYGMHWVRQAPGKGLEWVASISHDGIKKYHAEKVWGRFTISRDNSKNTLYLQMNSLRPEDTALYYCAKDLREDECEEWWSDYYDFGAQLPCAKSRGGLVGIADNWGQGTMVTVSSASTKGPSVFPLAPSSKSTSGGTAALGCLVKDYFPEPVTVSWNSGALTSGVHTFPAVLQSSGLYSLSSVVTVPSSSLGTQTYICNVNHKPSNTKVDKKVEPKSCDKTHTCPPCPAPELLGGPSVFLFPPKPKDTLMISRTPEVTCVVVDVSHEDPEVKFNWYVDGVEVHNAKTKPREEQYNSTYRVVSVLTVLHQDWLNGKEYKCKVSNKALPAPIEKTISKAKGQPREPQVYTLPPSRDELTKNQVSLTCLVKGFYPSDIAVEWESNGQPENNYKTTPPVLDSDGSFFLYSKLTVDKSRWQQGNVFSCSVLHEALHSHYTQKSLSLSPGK
light chain (VRC01 scFv, linker, CAP256V2LS LC): QVQLVQSGGQMKKPGESMRISCRASGYEFIDCTLNWIRLAPGKRPEWMGWLKPRGGAVNYARPLQGRVTMTRDVYSDTAFLELRSLTVDDTAVYFCTRGKNCDYNWDFEHWGRGTPVIVSSGGGGSGGGGSGGGGSLTQSPGTLSLSPGETAIISCRTSQYGSLAWYQQRPGQAPRLVIYSGSTRAAGIPDRFSGSRWGPDYNLTISNLESGDFGVYYCQQYEFFGQGTKVQVGGSGGGGSGGQSVLTQPPSVSAAPGQKVTISCSGNTSNIGNNFVSWYQQRPGRAPQLLIYETDKRPSGIPDRFSASKSGTSGTLAITGLQTGDEADYYCATWAASLSSARVFGTGTQVIVLGQPKVNPTVTLFPPSSEELQANKATLVCLISDFYPGAVTVAWKADSSPVKAGVETTTPSKQSNNKYAASSYLSLTPEQWKSHRSYSCQVTHEGSTVEKTVAPTECS
On to B6, for which the “% neutralization, single point” value came out at 38% in test [1] and 41% in test [2].

B7: CAP256V2LS-VRC01-1 (bispecific antibody)
heavy chain: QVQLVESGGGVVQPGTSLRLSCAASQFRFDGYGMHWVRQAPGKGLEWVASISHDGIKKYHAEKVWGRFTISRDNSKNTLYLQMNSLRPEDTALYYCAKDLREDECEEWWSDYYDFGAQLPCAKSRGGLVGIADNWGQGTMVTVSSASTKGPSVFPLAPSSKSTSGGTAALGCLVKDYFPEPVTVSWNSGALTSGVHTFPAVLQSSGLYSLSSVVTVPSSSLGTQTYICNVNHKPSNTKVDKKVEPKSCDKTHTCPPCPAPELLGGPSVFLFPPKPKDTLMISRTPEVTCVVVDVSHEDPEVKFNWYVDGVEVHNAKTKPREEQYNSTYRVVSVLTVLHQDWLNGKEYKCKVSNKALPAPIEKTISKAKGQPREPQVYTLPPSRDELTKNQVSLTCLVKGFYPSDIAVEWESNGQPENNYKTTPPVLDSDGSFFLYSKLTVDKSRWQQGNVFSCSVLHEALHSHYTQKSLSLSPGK
light chain (VRC01 scFv, linker, CAP256V2LS LC): QVQLVQSGGQMKKPGESMRISCRASGYEFIDCTLNWIRLAPGKRPEWMGWLKPRGGAVNYARPLQGRVTMTRDVYSDTAFLELRSLTVDDTAVYFCTRGKNCDYNWDFEHWGRGTPVIVSSGGGGSGGGGSGGGGSLTQSPGTLSLSPGETAIISCRTSQYGSLAWYQQRPGQAPRLVIYSGSTRAAGIPDRFSGSRWGPDYNLTISNLESGDFGVYYCQQYEFFGQGTKVQVGGSGGQSVLTQPPSVSAAPGQKVTISCSGNTSNIGNNFVSWYQQRPGRAPQLLIYETDKRPSGIPDRFSASKSGTSGTLAITGLQTGDEADYYCATWAASLSSARVFGTGTQVIVLGQPKVNPTVTLFPPSSEELQANKATLVCLISDFYPGAVTVAWKADSSPVKAGVETTTPSKQSNNKYAASSYLSLTPEQWKSHRSYSCQVTHEGSTVEKTVAPTECS
Turning to B7, the “% neutralization, single point” value in test [1] was determined as 0%; in test [2], 77%.

B8: CAP256V2LS-VRC01-4 (bispecific antibody)
heavy chain: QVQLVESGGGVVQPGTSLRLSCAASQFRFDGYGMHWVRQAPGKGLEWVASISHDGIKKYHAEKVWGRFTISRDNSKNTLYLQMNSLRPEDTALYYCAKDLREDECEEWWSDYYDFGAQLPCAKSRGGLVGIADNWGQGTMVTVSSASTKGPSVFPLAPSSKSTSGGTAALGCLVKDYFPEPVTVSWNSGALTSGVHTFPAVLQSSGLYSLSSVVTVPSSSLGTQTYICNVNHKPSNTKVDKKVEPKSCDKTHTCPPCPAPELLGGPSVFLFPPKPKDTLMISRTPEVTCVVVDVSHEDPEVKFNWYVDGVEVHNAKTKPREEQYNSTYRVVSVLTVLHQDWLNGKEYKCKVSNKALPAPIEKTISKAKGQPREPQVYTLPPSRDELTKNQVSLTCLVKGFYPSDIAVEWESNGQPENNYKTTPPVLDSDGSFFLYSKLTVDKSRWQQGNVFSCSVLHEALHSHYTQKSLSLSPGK
light chain (VRC01 scFv, linker, CAP256V2LS LC): B7 light chain (VRC01 scFv, linker, CAP256V2LS LC) with G234D, G235K, S236T, G237H, G238T
Regarding B8, the results for the “% neutralization, single point” value in test [1] and in test [2] were 0% and 98%, respectively.
